Assay results from publication PMC7144919.
Read-outs that look alike come from different tables or passages of the source.

Assays:
Sa Hfq = Sa Hfq (Staphylococcus aureus, UniProt A0A0H3JV59 1-77); assay: fluorescence polarization
Hfq Core [1] = biological target: T1, Hfq Core (Escherichia coli, UniProt P0A6X3 2-69); assay: fluorescence polarization
Hfq full length WT = Hfq full length WT (Escherichia coli, UniProt P0A6X3 2-102); assay: fluorescence polarization
Hfq(2-69:N13A) = Hfq(2-69:N13A) (Escherichia coli, UniProt P0A6X3 2-69, N13A); assay: fluorescence polarization
Hfq Core [2] = biological target: T1, Hfq Core; assay: fluorescence polarization; remark: listed apart in the source
Hfq(2-69:R16A/R17A) = Hfq(2-69:R16A/R17A) (Escherichia coli, UniProt P0A6X3 2-69, R16A;R17A); assay: fluorescence polarization
Hfq(2-69:Q41E) = Hfq(2-69:Q41E) (Escherichia coli, UniProt P0A6X3 2-69, Q41E); assay: fluorescence polarization
Hfq(2-69:Q41A) = Hfq(2-69:Q41A) (Escherichia coli, UniProt P0A6X3 2-69, Q41A); assay: fluorescence polarization
Hfq(2-69:R16A) = Hfq(2-69:R16A) (Escherichia coli, UniProt P0A6X3 2-69, R16A); assay: fluorescence polarization
Hfq F42W [3] = biological target: T2, Hfq F42W (Escherichia coli, UniProt P0A6X3 2-69, F42W); assay: tryptophan fluorescence quenching
Hfq F42W [4] = biological target: T2, Hfq F42W; assay: tryptophan fluorescence quenching; remark: listed apart in the source
Hfq WT (Table 3) [5] = biological target: T3, Hfq WT (Table 3) (Escherichia coli, UniProt P0A6X3 2-69); assay: fluorescence polarization
Hfq WT (Table 3) [6] = biological target: T3, Hfq WT (Table 3); assay: fluorescence polarization; remark: listed apart in the source

B1: xtal DNA, 30 bp with three 6-bp A-tracts (dsDNA)
DNA 1: CGGCAAAAAACGGCAAAAAACGGCAAAAAA
DNA 2: TTTTTTGCCGTTTTTTGCCGTTTTTTGCCG
Sa Hfq
  Kd: 6.4 µM
Hfq Core [1]
  Kd: 94 ± 8 nM
Hfq full length WT
  Kd: 175 ± 4.5 nM
Hfq(2-69:N13A)
  Kd: 6 ± 2.3 nM
Hfq Core [2]
  Kd: 4.9 ± 2.4 nM
Hfq(2-69:R16A/R17A)
  Kd: 66.8 ± 10.6 nM
Hfq(2-69:Q41E)
  Kd: 47.1 ± 4.7 nM
Hfq(2-69:Q41A)
  Kd: 300 ± 33.6 nM
Hfq(2-69:R16A)
  Kd: 34.1 ± 7 nM
Hfq F42W [3]
  binding result: binds

B2: site A (structured_RNA)
RNA: AUUUUUUCGAAUCGAAAGGUUCA
Hfq F42W [4]
  binding result: binds
Hfq WT (Table 3) [5]
  Kd: 22.7 ± 1.5 nM

B3: Hairpin 2 (structured_RNA)
RNA: CAUGAUUCUUAUACGUACGACGGAAGAUGAGAAUUAUGGU
Hfq WT (Table 3) [5]
  Kd: 61.5 ± 18.3 nM
Hfq F42W [3]
  binding result: binds

B4: A27 (ssRNA)
RNA: AAAAAAAAAAAAAAAAAAAAAAAAAAA
Hfq WT (Table 3) [6]
  binding result: binds

B5: 3-base A-tract DNA (dsDNA)
DNA 1: CGGCAAACGAAACGGCAAACGAAACGGCAAACGAAA
DNA 2: TTTCGTTTGCCGTTTCGTTTGCCGTTTCGTTTGCCG
Hfq Core [2]
  Kd: 19.4 ± 6 nM

B6: RacA DNA 14 bp (dsDNA)
DNA 1: TGACGCCGGCGTCA
DNA 2: TGACGCCGGCGTCA
Hfq Core [2]
  Kd: 16.2 ± 3.7 nM
